Drawing on article PMC10527347 (Journal of molecular biology, 2023), this text covers binding result and Kd for 3 molecules.

In one assay the target is Hsp90Ec K560C (E. coli, UniProt P0A6Z3 1-624, K560C). Nature of the assay: pull-down.
For the next assay, the target named is Hsp90Ec K492C (E. coli, UniProt P0A6Z3 1-624, K492C). Briefly: pull-down.
The target of another assay is Hsp90Ec K99C (E. coli, UniProt P0A6Z3 1-624, K99C). Nature of the assay: pull-down.
The target in assay [1] is T1, Hsp90Ec N347C (E. coli, UniProt P0A6Z3 1-624, N347C). Briefly: pull-down.
Another assay has as its target Hsp90Ec K45C (E. coli, UniProt P0A6Z3 1-624, K45C). Briefly: pull-down.
The target in a further assay is Hsp90Ec K71C (E. coli, UniProt P0A6Z3 1-624, K71C). Nature of the assay: pull-down.
The next assay deals with Hsp90Ec K103C (E. coli, UniProt P0A6Z3 1-624, K103C). Briefly: pull-down.
The target of the next assay is Hsp90Ec K354C (E. coli, UniProt P0A6Z3 1-624, K354C). Nature of the assay: pull-down.
In assay [2] the target is T2, Hsp90Ec N350C (E. coli, UniProt P0A6Z3 1-624, N350C). Nature of the assay: pull-down.
Another assay has as its target Hsp90Ec L493C (E. coli, UniProt P0A6Z3 1-624, L493C). Briefly: pull-down.
In another assay the target is Hsp90Ec K502C (E. coli, UniProt P0A6Z3 1-624, K502C). Briefly: pull-down.
Assay [3] concerns the target T3, Hsp90Ec K199C (E. coli, UniProt P0A6Z3 1-624, K199C). Briefly: pull-down.
Another assay addresses Hsp90Ec Q358C (E. coli, UniProt P0A6Z3 1-624, Q358C). Nature of the assay: pull-down.
The target in the next assay is Hsp90Ec wild-type (E. coli, UniProt P0A6Z3 1-624). Briefly: BLI.
The target in assay [4] is T1, Hsp90Ec N347C. Nature of the assay: cross-linking.
Assay [5] concerns the target T2, Hsp90Ec N350C. Nature of the assay: cross-linking.
Assay [6] deals with T1, Hsp90Ec N347C. Briefly: cross-linking. The source holds these as a separate data set.
Assay [7] addresses T3, Hsp90Ec K199C. Briefly: cross-linking.

B1: biotin-labeled CbpA (natural protein, E. coli, UniProt P36659 1-306, looked up)
chain: MELKDYYAIMGVKPTDDLKTIKTAYRRLARKYHPDVSKEPDAEARFKEVAEAWEVLSDEQRRAEYDQMWQHRNDPQFNRQFHHGDGQSFNAEDFDDIFSSIFGQHARQSRQRPATRGHDIEIEVAVFLEETLTEHKRTISYNLPVYNAFGMIEQEIPKTLNVKIPAGVGNGQRIRLKGQGTPGENGGPNGDLWLVIHIAPHPLFDIVGQDLEIVVPVSPWEAALGAKVTVPTLKESILLTIPPGSQAGQRLRVKGKGLVSKKQTGDLYAVLKIVMPPKPDENTAALWQQLADAQSSFDPRKDWGKA
modifications: biotin label (site not stated)
Regarding B1, the binding result with Hsp90Ec K560C, with Hsp90Ec K492C, in the assay with Hsp90Ec K99C, in the assay with Hsp90Ec N347C [1], with Hsp90Ec K45C and with Hsp90Ec K71C was “binds” in each case. Also, the binding result in the assay with Hsp90Ec K103C, with Hsp90Ec K354C, with Hsp90Ec N350C [2], in the assay with Hsp90Ec L493C, with Hsp90Ec K502C and in the assay with Hsp90Ec K199C [3] was “binds” throughout. Further, the binding result with Hsp90Ec Q358C is listed as “binds”. Besides, the dissociation constant Kd in the assay with Hsp90Ec wild-type came out at 11 ± 0.9 µM.

B2: CbpA J-domain A44C (domain or fragment, E. coli, UniProt P36659 1-78, looked up)
chain: MELKDYYAIMGVKPTDDLKTIKTAYRRLARKYHPDVSKEPDAECRFKEVAEAWEVLSDEQRRAEYDQMWQHRNDPQFN
With B2, the binding result with Hsp90Ec N347C [4] and in the assay with Hsp90Ec N350C [5] was “binds” in each case.

B3: wild type CbpA J-domain fragment (residues 1-78) (domain or fragment, E. coli, UniProt P36659 1-78, looked up)
chain: MELKDYYAIMGVKPTDDLKTIKTAYRRLARKYHPDVSKEPDAEARFKEVAEAWEVLSDEQRRAEYDQMWQHRNDPQFN
As for B3, the binding result with Hsp90Ec N347C [6] and with Hsp90Ec K199C [7] was “binds” each time.
